Reference: patent US8309523 (VIB VZW, dated 2012)

Target: T1, p76 fragment of MALT1 (Avi-tagged expression construct) (human, UniProt Q9UDY8 150-824, Avi-tag biotinylated in vivo by co-expressed BirA)
T1 construct: domain: p76 cleavage fragment; Lacks the N-terminal death domain; also called MALT1 p76; 76 kDa C-terminal fragment
T1 sequence (looked up): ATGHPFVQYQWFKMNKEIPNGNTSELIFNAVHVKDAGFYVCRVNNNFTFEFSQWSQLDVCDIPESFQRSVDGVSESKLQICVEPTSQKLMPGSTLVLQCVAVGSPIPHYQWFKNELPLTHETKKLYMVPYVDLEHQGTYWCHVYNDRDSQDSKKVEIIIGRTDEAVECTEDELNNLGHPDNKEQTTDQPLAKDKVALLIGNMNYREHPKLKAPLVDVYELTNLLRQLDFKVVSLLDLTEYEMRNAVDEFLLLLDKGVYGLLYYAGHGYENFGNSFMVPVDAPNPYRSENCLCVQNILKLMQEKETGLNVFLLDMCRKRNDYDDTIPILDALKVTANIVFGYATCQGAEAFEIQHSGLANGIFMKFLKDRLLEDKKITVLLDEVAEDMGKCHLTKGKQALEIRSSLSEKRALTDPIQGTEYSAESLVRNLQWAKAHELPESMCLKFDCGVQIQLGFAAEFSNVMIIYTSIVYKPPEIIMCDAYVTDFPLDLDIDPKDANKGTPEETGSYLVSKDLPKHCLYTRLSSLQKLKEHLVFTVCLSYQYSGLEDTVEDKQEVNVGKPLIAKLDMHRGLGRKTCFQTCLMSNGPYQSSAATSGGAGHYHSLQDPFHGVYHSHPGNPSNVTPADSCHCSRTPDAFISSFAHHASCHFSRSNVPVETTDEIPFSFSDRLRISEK
Assay: bio-IP from HEK293T cells, anti-BCL10 immunoblot
Description: FIG. 5: p76 activates NFκB via TRAF6. […] Panel B) TRAF6 mediates NFκB signaling by p76. Top: NFκB-reporter assays of HEK293T cells transiently expressing MALT1, p76 and mutants or MALT1-C. Bottom: MALT1, p76 or MALT1-C, transiently expressed in HEK293T cells, were purified via bio-IPs and immunoblotted with anti-MALT1 (to show equal expression), anti-TRAF6 and anti-BCL10. Panel C) p76 induces polyubiquitination of IKKγ. Immunoblot analysis of bio-IP and IKKγ-IP of 293T cells transfected with pcD-F-IKKγ and pcd-HA-Ub in combination with indicated Avi-tagged MALT1 constructs. Panel D) BCL10 is not involved in NFκB signaling by p76. NFκB reporter assays of HEK-293T cells transfected with siRNA duplexes against MALT1, BCL10 or GFP (as control) followed by transient transfection with p76. The expression levels were determined by immunoblot with anti-MALT1 and anti-BCL10. NFκB-dependent luciferase activity […] is shown as fold induction of vector-transfected cells and represents the mean+/−S.D. of three independent experiments.

B1: BCL10 (other, UniProt O95999 1-233, looked up)
chain: MEPTAPSLTEEDLTEVKKDALENLRVYLCEKIIAERHFDHLRAKKILSREDTEEISCRTSSRKRAGKLLDYLQENPKGLDTLVESIRREKTQNFLIQKITDEVLKLRNIKLEHLKGLKCSSCEPFPDGATNNLSRSNSDESNFSEKLRASTVMYHPEGESSTTPFFSTNSSLNLPVLEVGRTENTIFSSTTLPRPGDPGAPPLPPDLQLEEEGTCANSSEMFLPLRSRTVSRQ
notes: Co-precipitated from lysates of human cell lines
B1: no binding.
